B1: DN nonspecific 15mer duplex (dsDNA)
DNA 1: AGGCGCATAGTCGCA
DNA 2: TGCGACTATGCGCCT

Legend:
hUNG catalytic domain [1] = biological target: T1, hUNG catalytic domain (Homo sapiens, UniProt P13051 94-313); assay: stopped-flow 2-AP fluorescence (koff/kon); settings: 2'-beta-fluoro-2'-deoxyuridine (Ubeta), 2-aminopurine adjacent, paired with T, 20 mM HEPES pH 7.5, 3 mM EDTA, 1 mM DTT, 0.002% Brij 35, 22 mM total Na+, with or without PEG 8K, temperature not stated for binding assays
hUNG catalytic domain [2] = biological target: T1, hUNG catalytic domain; assay: fluorescence anisotropy; 20% PEG 8K; 20 mM HEPES pH 7.5, 3 mM EDTA, 1 mM DTT, 0.002% Brij 35, 22 mM total Na+; with or without PEG 8K; temperature not stated for binding assays; settings: protein: recombinant; label: 5'-fluorescein (FAM); (complement implied by Watson-Crick pairing)
hUNG catalytic domain [3] = biological target: T1, hUNG catalytic domain; assay: fluorescence anisotropy; dilute buffer; 20 mM HEPES pH 7.5, 3 mM EDTA, 1 mM DTT, 0.002% Brij 35, 22 mM total Na+; with or without PEG 8K; temperature not stated for binding assays; settings: protein: recombinant; label: 5'-fluorescein (FAM); (complement implied by Watson-Crick pairing)

T1 sequence (P13051 94-313): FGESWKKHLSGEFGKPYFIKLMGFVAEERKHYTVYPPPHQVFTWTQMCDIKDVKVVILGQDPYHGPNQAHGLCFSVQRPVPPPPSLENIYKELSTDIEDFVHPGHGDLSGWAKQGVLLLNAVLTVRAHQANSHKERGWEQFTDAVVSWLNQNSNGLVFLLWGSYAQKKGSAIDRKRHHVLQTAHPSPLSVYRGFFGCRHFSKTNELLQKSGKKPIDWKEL

Molecule	Kd (hUNG catalytic domain [1]; 5% PEG 8K)	Kd (hUNG catalytic domain [1]; 10% PEG 8K)	Kd (hUNG catalytic domain [1]; 15% PEG 8K)	Kd (hUNG catalytic domain [1]; 20% PEG 8K, fast phase koff used)	Kd (hUNG catalytic domain [1]; dilute buffer, text of Methods gives 0.3 nM)	Kd (hUNG catalytic domain [2])	Kd (hUNG catalytic domain [3])
DS specific 19mer duplex (2-AP next to Ubeta)	0.31 nM	0.2 nM	0.7 nM	1.2 nM	0.4 nM	–	–
B1	–	–	–	–	–	2300 ± 500 nM	1300 ± 500 nM
